The test addresses ncor2_human NCOR2 (UniProt Q9Y618).

Chain of ncor2_human NCOR2 (Q9Y618 whole entry): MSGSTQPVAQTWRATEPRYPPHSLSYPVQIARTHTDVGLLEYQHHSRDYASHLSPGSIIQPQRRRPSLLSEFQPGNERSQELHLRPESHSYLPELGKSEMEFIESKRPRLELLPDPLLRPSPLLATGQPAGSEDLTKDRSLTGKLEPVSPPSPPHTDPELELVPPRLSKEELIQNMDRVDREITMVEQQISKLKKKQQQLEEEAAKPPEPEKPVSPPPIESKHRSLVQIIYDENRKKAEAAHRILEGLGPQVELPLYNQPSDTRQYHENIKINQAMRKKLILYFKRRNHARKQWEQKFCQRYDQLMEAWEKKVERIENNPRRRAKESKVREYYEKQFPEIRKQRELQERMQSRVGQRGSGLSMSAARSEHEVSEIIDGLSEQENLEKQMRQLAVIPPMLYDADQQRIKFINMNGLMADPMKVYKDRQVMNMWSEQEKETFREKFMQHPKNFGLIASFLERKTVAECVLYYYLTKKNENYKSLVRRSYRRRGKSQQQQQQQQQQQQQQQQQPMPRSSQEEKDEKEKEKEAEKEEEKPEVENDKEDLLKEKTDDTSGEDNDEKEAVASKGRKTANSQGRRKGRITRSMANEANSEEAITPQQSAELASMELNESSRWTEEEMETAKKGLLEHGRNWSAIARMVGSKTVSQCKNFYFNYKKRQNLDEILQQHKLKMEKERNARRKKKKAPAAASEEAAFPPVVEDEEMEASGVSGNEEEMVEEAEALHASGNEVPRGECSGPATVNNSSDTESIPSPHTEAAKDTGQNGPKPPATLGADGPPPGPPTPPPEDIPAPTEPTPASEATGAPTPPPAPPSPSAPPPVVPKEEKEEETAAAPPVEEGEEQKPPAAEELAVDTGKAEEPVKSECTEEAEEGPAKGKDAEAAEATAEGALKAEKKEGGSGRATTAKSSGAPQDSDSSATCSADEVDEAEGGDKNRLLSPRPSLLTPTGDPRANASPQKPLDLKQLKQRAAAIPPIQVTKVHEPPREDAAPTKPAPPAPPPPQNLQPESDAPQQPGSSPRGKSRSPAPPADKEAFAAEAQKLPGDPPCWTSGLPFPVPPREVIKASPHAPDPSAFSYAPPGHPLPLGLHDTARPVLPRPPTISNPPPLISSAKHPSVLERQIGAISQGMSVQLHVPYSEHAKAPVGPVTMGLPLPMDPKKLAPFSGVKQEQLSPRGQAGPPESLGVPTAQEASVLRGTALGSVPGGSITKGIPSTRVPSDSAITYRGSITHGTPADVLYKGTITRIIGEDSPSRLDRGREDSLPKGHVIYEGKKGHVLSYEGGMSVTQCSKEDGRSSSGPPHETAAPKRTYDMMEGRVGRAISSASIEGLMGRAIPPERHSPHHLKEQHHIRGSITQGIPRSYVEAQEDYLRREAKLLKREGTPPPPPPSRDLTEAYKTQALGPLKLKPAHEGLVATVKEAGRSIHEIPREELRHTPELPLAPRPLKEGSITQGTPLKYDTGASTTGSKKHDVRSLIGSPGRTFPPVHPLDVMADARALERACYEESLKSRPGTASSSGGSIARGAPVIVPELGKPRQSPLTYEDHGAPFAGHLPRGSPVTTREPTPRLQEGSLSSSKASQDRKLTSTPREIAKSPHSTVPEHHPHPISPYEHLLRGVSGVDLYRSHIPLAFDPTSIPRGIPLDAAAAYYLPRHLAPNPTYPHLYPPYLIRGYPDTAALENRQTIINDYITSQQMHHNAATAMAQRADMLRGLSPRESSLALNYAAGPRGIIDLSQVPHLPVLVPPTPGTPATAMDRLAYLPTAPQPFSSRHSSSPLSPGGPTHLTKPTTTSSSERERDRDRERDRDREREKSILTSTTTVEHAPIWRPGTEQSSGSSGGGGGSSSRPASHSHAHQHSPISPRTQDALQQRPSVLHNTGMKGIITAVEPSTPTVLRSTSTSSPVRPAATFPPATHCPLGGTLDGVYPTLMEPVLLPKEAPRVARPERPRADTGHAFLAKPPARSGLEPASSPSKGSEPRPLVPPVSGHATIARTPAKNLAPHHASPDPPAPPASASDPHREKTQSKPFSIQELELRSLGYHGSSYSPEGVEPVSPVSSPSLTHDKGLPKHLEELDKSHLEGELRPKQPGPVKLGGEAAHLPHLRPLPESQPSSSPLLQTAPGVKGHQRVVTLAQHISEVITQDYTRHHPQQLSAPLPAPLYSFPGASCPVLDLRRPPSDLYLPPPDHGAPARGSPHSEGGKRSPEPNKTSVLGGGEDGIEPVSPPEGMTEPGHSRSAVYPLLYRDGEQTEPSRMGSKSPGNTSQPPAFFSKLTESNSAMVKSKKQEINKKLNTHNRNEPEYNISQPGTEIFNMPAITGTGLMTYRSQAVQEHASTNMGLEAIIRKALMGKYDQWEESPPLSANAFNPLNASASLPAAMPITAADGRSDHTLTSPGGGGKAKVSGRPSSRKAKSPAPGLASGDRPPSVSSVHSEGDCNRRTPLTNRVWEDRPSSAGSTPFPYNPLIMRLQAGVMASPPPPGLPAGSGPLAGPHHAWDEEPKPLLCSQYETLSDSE

As for “Msx2-interacting protein (Homo sapiens), Q96T58 Q3551A”, the “effect of a mutation on the interaction” value is “decreasing interaction strength”. The result for “Msx2-interacting protein (Homo sapiens), Q96T58 K3606A” reads “disrupting interaction strength”; that for “Msx2-interacting protein (Homo sapiens), Q96T58 R3548A”, “decreasing interaction strength”. The value for “Msx2-interacting protein (Homo sapiens), Q96T58 K3516A” was “disrupting interaction strength”; that for “Msx2-interacting protein (Homo sapiens), Q96T58 R3554A” was “decreasing interaction strength”. The value for “Msx2-interacting protein (Homo sapiens), Q96T58 R3552K” was “decreasing interaction strength”; that for “Msx2-interacting protein (Homo sapiens), Q96T58 Y3602A” was “decreasing interaction strength”.

As to “Msx2-interacting protein (Homo sapiens), Q96T58 L3515A”, the “effect of a mutation on the interaction” value is reported as “decreasing interaction strength”. Regarding “Msx2-interacting protein (Homo sapiens), Q96T58 R3552A”, the “effect of a mutation on the interaction” value is reported as “disrupting interaction strength”. For “Msx2-interacting protein (Homo sapiens), Q96T58 M3553A”, the “effect of a mutation on the interaction” value was “decreasing interaction strength”.

Values taken from IntAct's records for PubMed 24268649.
